For the assay, the target named is T1, Signal peptide peptidase (human (endogenous in HEK293)), Q8TCT9.
T1 chain: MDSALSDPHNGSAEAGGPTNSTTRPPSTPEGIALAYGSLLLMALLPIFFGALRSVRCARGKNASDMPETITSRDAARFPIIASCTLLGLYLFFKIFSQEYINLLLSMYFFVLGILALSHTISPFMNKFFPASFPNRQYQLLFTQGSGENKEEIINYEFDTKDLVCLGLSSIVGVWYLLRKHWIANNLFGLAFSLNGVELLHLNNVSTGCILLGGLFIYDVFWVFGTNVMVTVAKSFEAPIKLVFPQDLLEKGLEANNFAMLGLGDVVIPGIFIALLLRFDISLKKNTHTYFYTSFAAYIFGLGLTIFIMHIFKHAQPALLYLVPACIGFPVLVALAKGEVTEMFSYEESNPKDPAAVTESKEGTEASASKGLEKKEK
Put plainly: native gel or EMSA; BN-PAGE of HEK293 or HEK293 vigilin-FLAG lysates solubilized in 0.5% DDM, Western blot for SPP and vigilin (or FLAG); second dimension SDS-PAGE for SPP. Conditions: remark: other sources report otherwise. For orientation: Mobility shift assays separate free from complexed probe on a gel.

Among the data in article PMC3490818 are stoichiometry N values, retold here.

B1: Signal peptide peptidase, Q8TCT9 1-377 (natural protein)
chain: MDSALSDPHNGSAEAGGPTNSTTRPPSTPEGIALAYGSLLLMALLPIFFGALRSVRCARGKNASDMPETITSRDAARFPIIASCTLLGLYLFFKIFSQEYINLLLSMYFFVLGILALSHTISPFMNKFFPASFPNRQYQLLFTQGSGENKEEIINYEFDTKDLVCLGLSSIVGVWYLLRKHWIANNLFGLAFSLNGVELLHLNNVSTGCILLGGLFIYDVFWVFGTNVMVTVAKSFEAPIKLVFPQDLLEKGLEANNFAMLGLGDVVIPGIFIALLLRFDISLKKNTHTYFYTSFAAYIFGLGLTIFIMHIFKHAQPALLYLVPACIGFPVLVALAKGEVTEMFSYEESNPKDPAAVTESKEGTEASASKGLEKKEK
B1: the stoichiometry N (usually the number of molecules, sites or subunits per partner or assembly) is 2.
